Measurements from publication PMC12724223.

Molecular target: T cell receptor subunit CD3ζ (human) (human (endogenous in primary CD4+ T cells))

## SIVmac239 I123L L146F Nef (natural protein)
  fold downregulation of cell surface CD3 relative to ΔNef, transduced primary huCD4+ T cells, flow cytometry (Fig. 5B): 2.7 fold

## SIVmac239 WT Nef (natural protein)
  fold downregulation of cell surface CD3 relative to ΔNef, transduced primary huCD4+ T cells, flow cytometry (Fig. 5B): 15.2 fold
